# B1: anti-CD300c monoclonal antibody CL7 (antibody, V domains shown)
# VH: EVQLLESGGGLVQPGGSLRLSCAASGFTFSRYAMSWVRQAPGKGLEWVSAISGSGGSTYYADSVKGRFTISRDNSKNTLYLQMNSLRAEDTAVYYCARSSQGIFDIWGQGTLVTVSS
# VL: QSVLTQPPSASGTPGQRVTISCSGNNIGTRRVHWYQQLPDTAPKLLIYSKNNRPSGVPDRFSGSKSGTSASLAISGLRSEDEADYYCAAWDDSLSGPVFGGGTKLTVL
# notes: Full antibody from separate heavy and light chain vectors in 293T cells
# B2: anti-CD300c monoclonal antibody SL18 (antibody, V domains shown)
# VH: RVQLLESGGGLVQPGGSLRLSCAASGFTFSDYHMHWVRQAPGKGLEWVSTISSSGGYTYYAESVKSRFTISRDNSKNTLYLQMNSLRAEDTAVYYCARSIRLPLDYWGQGTLVTVSS
# VL: QSVLTQPPSASGTPGQRVTISCSGNNIGSKGVHWYQQLPGTAPKLLIYEDSKRPSGVRDRFSGSKSGTSASLAISGLRSEDEADYYCQSYDSTKGVVFGGGTKLTVL
# B3: anti-CD300c monoclonal antibody CL10 (antibody, V domains shown)
# VH: EVQLLESGGGLVQPGGSLRLSCAASGFTFSSYGMHWVRQAPGKGLEWVSAISGSGGSTYYADSVKGRFTISRDNSKNTLYLQMNSLRAEDTAVYYCASGYGLMDVWGQGTLVTVSS
# VL: QSVLTQPPSASGTPGQRVTISCTRSSGIIASNYVQWYQQLPGTAPKLLIYRNNQRPSGVPDRFSGSKSGTSASLAISGLRSEDEADYYCSSYAGNNNLVFGGGTKLTVL
# Experiments:
# [1] = target: T1, mouse CD300c antigen (mouse); test: cell-based or functional assay
# T1 sequence (A2A7V7 whole entry, looked up): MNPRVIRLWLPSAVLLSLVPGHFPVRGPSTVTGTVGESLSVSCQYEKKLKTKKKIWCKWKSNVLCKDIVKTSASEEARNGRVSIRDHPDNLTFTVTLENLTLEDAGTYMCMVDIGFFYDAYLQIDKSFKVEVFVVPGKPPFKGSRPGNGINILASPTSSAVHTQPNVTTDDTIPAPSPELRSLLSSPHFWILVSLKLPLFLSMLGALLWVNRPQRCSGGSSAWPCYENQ
# [2] = target: T2, CD300a antigen (12449-H08H, Sino Biological) (UniProt Q9UGN4 18-180); test: binding ELISA with CD300a antigen
# T2 construct: Bought recombinant antigen
# T2 sequence (looked up): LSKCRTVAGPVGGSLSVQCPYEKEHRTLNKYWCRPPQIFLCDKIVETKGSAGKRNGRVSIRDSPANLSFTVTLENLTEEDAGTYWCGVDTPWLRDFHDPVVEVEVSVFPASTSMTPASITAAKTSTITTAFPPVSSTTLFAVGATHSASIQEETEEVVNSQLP
# Procedure: To identify the antigen-binding ability of the anti-CD300c monoclonal antibody produced in Example 1, binding ELISA was performed. Specifically, each of the CD300c antigen (11832-H08H, Sino Biological) or CD300a antigen (12449-H08H, Sino Biological) in a coating buffer (0.1 M sodium carbonate, pH 9.0) was dispensed onto an ELISA plate at a concentration of 8 μg/mL per well, and then reaction was allowed to proceed at room temperature for 3 hours so that the antigen was bound to the plate. Washing was performed 3 times using phosphate buffered saline-Tween 20 (PBST) to remove unbound antigen, and then 300 μL of PBST supplemented with 5% bovine serum albumin (BSA) was added to each well. Reaction was allowed to proceed at room temperature for 1 hour, and washing was performed again using PBST. Then, the anti-CD300c monoclonal antibody was diluted in quadruplicate and added thereto. Reaction was allowed to proceed for 1 hour at room temperature for antigen binding. After 1 hour, washing was performed 3 times using PBST to remove unbound anti-CD300c monoclonal antibody, and then 4 μg/mL of an antibody for detection (HRP conjugated anti-Fc IgG) was added. […] Then, 2 N sulfuric acid solution was added to terminate the development, and the absorbance was measured at 450 nm to identify the antibodies that specifically bind to the CD300c antigen. […]
binder,measurement,setting,value
B1,"cancer cell proliferation inhibitory effects (CT26 mouse colorectal cancer cell line, CCK-8), higher than the control group",[1],66%
same,binding result,[2],"no binding (tested: 0.039, 0.63, and 10 µg/mL)"
B2,"cancer cell proliferation inhibitory effects (CT26 mouse colorectal cancer cell line, CCK-8), higher than the control group",[1],38%
B3,"cancer cell proliferation inhibitory effects (CT26 mouse colorectal cancer cell line, CCK-8), higher than the control group",[1],15%
